Data on 2 substances can be found in publication PMC12324117.

The test addresses LRRC4B (453–576) protein (UniProt Q9NT99). Put plainly: ELISA; plates coated with LRRC4B (453–576) protein at 1 µg/ml in 50 mM carbonate buffer pH 9.6; FAM19A5 added; detected with HRP-conjugated C-A5-Ab; OD 450 nm (format as told for the CSF ELISA); n = 10 each. For orientation: An ELISA detects its analyte on a solid surface through an enzyme-linked reagent.
Sequence of UniProt Q9NT99 (Q9NT99 453-576): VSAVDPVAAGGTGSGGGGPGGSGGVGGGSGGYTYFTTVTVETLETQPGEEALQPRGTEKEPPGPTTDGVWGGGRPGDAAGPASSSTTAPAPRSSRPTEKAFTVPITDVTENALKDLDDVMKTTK

In the case of “WT FAM19A5 protein (ELISA) (natural protein)”, the EC50 was determined as 0.199 nM. Take “MT FAM19A5 protein (ELISA) (natural protein)”: the EC50 amounted to 2.56 nM.

For orientation: EC50 means the concentration at which the effect is half-maximal. High values mean a less potent agent, low ones a more potent agent.
